Data reported in patent US20210403591A1 (OSSIANIX, published 2021).
Positions count from the first letter of the chain named. Read-outs that look alike come from different tables or passages of the source.

Key:
[1] = target: T1, purified WT mTfR-1 (ELISA coat) (mouse, UniProt Q62351 89-763); assay: ELISA, coated purified WT mTfR1
Experimental: Serial dilutions the VNAR-Fc fusion protein in blocking buffer (PBS-0.1% Tween+2.5% milk) were exposed to pre-blocked Nunc Maxisorp 96-well plates coated with the M1, M2 and M3 mutants at 1 μg/mL. After washing in PBS-0.1% Tween-20, binding of Clone C-hFc fusion was detected using an anti-human IgG (Fc specific) peroxidase antibody (Sigma-Aldrich) and the plates were developed using the chromogenic substrate TMB. Absorbance at 450 nm was recorded using an Envision multi-well reader (Perkin Elmer) and EC50s were calculated by fitting curves (non-linear regression) using GraphPad Prism®.
The binding of Clone C compared to the 8D3 antibody was tested on purified WT mTfR1 in addition to the three mutants by ELISA (FIG. 26).

[2] = target: T2, purified mTfR1 mutant M3 (NGA) (mouse, UniProt Q62351 89-763); assay: ELISA, coated purified mTfR-1
T2 construct: also called S255A
T2 sequence (Q62351 other isoform, or with tags, fused parts or gaps mutant): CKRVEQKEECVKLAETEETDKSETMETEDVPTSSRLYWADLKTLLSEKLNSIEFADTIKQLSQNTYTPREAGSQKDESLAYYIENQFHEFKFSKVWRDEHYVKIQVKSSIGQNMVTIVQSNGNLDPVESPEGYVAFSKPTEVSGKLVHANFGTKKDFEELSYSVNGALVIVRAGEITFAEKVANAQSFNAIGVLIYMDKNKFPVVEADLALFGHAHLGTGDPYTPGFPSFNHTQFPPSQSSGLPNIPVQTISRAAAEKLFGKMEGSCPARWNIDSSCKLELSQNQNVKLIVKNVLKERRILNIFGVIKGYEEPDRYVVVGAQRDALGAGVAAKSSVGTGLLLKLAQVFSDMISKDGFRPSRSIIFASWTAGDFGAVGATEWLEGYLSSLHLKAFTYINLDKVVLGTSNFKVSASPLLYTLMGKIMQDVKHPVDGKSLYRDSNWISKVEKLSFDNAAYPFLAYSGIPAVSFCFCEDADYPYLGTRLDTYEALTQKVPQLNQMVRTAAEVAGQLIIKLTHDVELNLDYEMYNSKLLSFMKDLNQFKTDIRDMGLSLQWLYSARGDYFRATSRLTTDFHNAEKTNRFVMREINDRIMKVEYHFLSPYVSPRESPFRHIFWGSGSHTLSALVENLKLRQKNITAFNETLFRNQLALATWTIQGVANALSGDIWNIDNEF

[3] = target: T3, purified mTfR1 mutant M2 (NAS) (mouse, UniProt Q62351 89-763); assay: ELISA, coated purified mTfR-1
T3 construct: also called G254A
T3 sequence (Q62351 other isoform, or with tags, fused parts or gaps mutant): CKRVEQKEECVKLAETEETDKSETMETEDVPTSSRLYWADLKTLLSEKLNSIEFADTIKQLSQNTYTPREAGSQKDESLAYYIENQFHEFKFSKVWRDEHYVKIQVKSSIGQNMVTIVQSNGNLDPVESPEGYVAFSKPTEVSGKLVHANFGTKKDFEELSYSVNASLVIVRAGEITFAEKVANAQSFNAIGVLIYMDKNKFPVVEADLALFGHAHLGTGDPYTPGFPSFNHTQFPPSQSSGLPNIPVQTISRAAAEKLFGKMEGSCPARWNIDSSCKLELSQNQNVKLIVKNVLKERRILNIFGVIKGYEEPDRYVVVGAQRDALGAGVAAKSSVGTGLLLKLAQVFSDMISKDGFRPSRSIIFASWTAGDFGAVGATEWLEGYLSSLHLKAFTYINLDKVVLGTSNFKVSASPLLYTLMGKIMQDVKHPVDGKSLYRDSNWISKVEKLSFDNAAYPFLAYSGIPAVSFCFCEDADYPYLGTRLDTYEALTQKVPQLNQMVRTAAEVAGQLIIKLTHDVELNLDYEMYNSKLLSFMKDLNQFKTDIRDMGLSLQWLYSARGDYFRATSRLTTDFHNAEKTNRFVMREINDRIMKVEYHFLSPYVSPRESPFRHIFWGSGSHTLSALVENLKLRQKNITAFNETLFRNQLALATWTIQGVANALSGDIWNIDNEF

[4] = target: T2, purified mTfR1 mutant M3 (NGA); assay: ELISA, coated purified mTfR-1; remark: listed apart in the source
[5] = target: T3, purified mTfR1 mutant M2 (NAS); assay: ELISA, coated purified mTfR-1; remark: listed apart in the source
[6] = target: T4, purified mTfR1 mutant M1 (AGS) (mouse, UniProt Q62351 89-763); assay: ELISA, coated purified mTfR-1
T4 construct: also called N253A
T4 sequence (Q62351 other isoform, or with tags, fused parts or gaps mutant): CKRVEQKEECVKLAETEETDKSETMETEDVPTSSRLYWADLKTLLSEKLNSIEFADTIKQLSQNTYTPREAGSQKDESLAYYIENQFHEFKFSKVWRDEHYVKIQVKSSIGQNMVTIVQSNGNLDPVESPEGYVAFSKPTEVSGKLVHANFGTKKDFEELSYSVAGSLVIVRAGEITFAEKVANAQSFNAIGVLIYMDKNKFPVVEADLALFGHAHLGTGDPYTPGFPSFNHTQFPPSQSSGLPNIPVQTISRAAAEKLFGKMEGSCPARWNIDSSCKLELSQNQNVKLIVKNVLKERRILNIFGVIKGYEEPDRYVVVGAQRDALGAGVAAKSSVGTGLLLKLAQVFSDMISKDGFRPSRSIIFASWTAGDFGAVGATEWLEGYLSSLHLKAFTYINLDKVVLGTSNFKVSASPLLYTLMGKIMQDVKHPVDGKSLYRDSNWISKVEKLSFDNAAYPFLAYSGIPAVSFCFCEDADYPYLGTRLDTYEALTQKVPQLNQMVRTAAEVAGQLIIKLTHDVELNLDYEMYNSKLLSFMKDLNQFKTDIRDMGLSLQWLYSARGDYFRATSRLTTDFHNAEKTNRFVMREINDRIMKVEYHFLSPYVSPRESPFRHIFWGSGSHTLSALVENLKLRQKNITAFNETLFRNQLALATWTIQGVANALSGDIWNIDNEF

[7] = target: T1, purified WT mTfR-1 (ELISA coat); assay: ELISA, coated purified mTfR-1
[8] = target: T3, purified mTfR1 mutant M2 (NAS); assay: ELISA, plate coated with purified mTfR-1 mutant M2 (NAS), serial dilution of the binder; y axis Norm. Vmax OD at 650nm

T1 sequence (Q62351 89-763): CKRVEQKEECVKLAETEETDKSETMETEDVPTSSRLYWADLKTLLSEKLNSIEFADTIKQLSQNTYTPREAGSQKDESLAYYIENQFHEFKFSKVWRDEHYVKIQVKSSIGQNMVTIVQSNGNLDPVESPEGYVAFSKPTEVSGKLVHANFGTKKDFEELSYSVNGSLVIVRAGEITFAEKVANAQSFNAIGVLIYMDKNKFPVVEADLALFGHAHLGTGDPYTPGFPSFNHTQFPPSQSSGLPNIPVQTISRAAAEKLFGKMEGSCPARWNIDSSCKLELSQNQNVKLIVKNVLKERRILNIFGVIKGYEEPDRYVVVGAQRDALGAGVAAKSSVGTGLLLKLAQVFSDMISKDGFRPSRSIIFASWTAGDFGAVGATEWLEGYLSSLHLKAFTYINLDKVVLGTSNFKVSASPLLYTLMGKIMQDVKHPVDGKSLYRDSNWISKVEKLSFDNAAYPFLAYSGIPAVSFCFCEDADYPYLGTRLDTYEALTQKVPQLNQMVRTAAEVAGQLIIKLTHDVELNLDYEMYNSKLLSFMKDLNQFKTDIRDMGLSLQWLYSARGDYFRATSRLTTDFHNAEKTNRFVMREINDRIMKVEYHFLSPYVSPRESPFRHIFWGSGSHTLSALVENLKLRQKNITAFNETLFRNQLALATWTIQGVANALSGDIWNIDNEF

B1: Clone C VNAR-hFc fusion (Fc fusion, not shown: a dimerising Fc or GST)
chain: ARVDQTPQTITKETGESLTINCVLRDSNCALSSTYWYRKKSGSTNEENISKGGRYVETVNSGSKSFSLRINDLTVEDSGTYRCNVVQYPSYNNYFWCDVYGDGTAVTVN
notes: bivalent VNAR-Fc; also called Clone C-hFc
B1 was tested, and the EC50 [1] was 65.4 nM.

B2: Clone C variant 13 VNAR-hFc (Fc fusion, not shown: a dimerising Fc or GST)
chain: B1 chain with S90Q, Y91Q, N92D
notes: also called Clone C v13; Clone C var; 13
B2 showed an EC50 [2] of 0.79 nM and an EC50 [3] of 13 nM.

B3: Clone C variant 18 VNAR-hFc (Fc fusion, not shown: a dimerising Fc or GST)
chain: B1 chain with S90Q, N92P
notes: also called Clone C v18; Clone C var; 18
B3 was tested, and the EC50 [2] was 2.6 nM and the EC50 [3] was 200 nM.

B4: 8D3 antibody (anti-mouse TfR-1 control; 8D3-hFc formatted antibody) (antibody, V domains shown)
VH: EVQLVESGGGLVQPGNSLTLSCVASGFTFSNYGMHWIRQAPKKGLEWIAMIYYDSSKMNYADTVKGRFTISRDNSKNTLYLEMNSLRSEDTAMYYCAVPTSHYVVDVWGQGVSVTVSS
VL: DIQMTQSPASLSASLEEIVTITCQASQDIGNWLAWYQQKPGKSPQLLIYGATSLADGVPSRFSGSRSGTQFSLKISRVQVEDIGIYYCLQAYNTPWTFGGGTKLELK
With B4 the EC50 [4] was 0.51 nM, the EC50 [5] was 0.33 nM and the EC50 [6] was 0.35 nM. For the same binder, the EC50 [7] was 0.49 nM, the “EC50 (read off the curve)” value [8] was ~4 nM and the EC50 [1] was 11.1 nM.
